From patent US7056679

Target: lactate dehydrogenase (LDH)
Test: phage ELISA, 405 nm; LDH coated

LDH (OD)	Binder
0.7	DGI-2-40F-3-B72 (peptide, not shown: large carriers) peptide: PKDGAAFKGSDFIQGGQTVMERAPALWWRDGGGQWEAPSTAAAGAPVPYPDPLEPRP
1.1	ACSVGTALVFPQRWWYLGRSAAAGAPVPYPDPLEPRP (peptide, not shown: large carriers) [DGL-2-20R-3-D6]
0.8	DGI-2-40F-3-D9 (peptide, not shown: large carriers) peptide: RRTSADTDQLSRWEGAQAFSSLRSALSERLDSLRPGLPPSAAAGAPVPYPDPLEPRP
1.3	LHFGSVMGWRPPGSLWSRPFGQVHPRSWSGSAAAGAPVPYPDPLEPRP (peptide, not shown: large carriers) [DGI-2-40F-3-D11]
1	TSCQVMFLAGQHLLSRVPRLAAAGAPVPYPDPLEPRP (peptide, not shown: large carriers) [DGL-2-20R-3-B6]
1	DGI-2-40F-3-D7 (peptide, not shown: large carriers) peptide: ALRSLGSGGFGWQAGRASPQGMTHFPYFGWSGMPTARVRPAAAGAPVPYPDPLEPRP
0.8	DGI-2-40F-3-B95 (peptide, not shown: large carriers) peptide: DYKTCVSQHVHPLFGEYFYHKVTHMSILSPTFRVTSLYGKAAAGAPVPYPDPLEPRP
0.9	DGI-2-40F-3-B11 (peptide, not shown: large carriers) peptide: LAPMFLQNQVRTWAASRRPLPAGPSNARCETGSLSPWVPCAAAGAPVPYPDPLEPRP
0.9	DGL-2-40F-3-D10 (peptide, not shown: large carriers) peptide: TLVTEGNKGSVKAHKDIGVWQLWWDWLSVTDSETVGRVSHAAAGAPVPYPDPLEPRP
0.8	DGI-2-40F-3-C6 (peptide, not shown: large carriers) peptide: QMFSKGNWLAHPEGGVALGLSRESQLFRSCREFGYCMGPMAAAGAPVPYPDPLEPRP
1	DGI-2-40F-4-F6 (peptide, not shown: large carriers) peptide: SYRNFAMQSSLQVRRGSVVEDGTCWWEGVRCYSGAAAGAPVPYPDPLEPRP
0.8	DGI-2-40F-3-C7 (peptide, not shown: large carriers) peptide: HPWVTNMLVFQRPPPPGFWLSDTTPRQRNGLGQVERPSVDAAAGAPVPYPDPLEPRP
1	DGI-2-40F-3-D6 (peptide, not shown: large carriers) peptide: GLEPVPFQTDKRIAMGWTREWLVNGYGAAHRRDARMQSGHAAAGAPVPYPDPLEPRP
0.8	RFWSVSYQGGRVMCREWGYCLPIAAAGAPVPYPDPLEPRP (peptide, not shown: large carriers) [DGI-2-40F-3-C92]
0.8	DGI-2-40F-3-B116 (peptide, not shown: large carriers) peptide: GVVRAQQGLRYELQGDRYRLRRTQWLTVTYCSPSWAFAGCAAAGAPVPYPDPLEPRP
0.9	DGI-2-40F-4-F12 (peptide, not shown: large carriers) peptide: GLYRRAGDASVGFSRWGRFDCQVYFSVECLLGSSWGGYSAAAGAPVPYPDPLEPRP
0.8	DGI-2-40F-3-B122 (peptide, not shown: large carriers) peptide: HSGNRQSGSRRTHLLNIFCSSDTFVFPGWSAYLSRVCPGDAAAGAPVPYPDPLEPRP
1	DGI-2-40F-3-D12 (peptide, not shown: large carriers) peptide: QGSAHVVRPPGVYDVPWKVGMFFHPQNWPNSWGRAYFRSGAAAGAPVPYPDPLEPRP
0.8	DGI-2-40F-3-C52 (peptide, not shown: large carriers) peptide: GLLFTSSPYQCFWVHCTLTMSPLSVLGDLSSTIGRMRASRAAAGAPVPYPDPLEPRP
1	DGI-2-40F-3-B10 (peptide, not shown: large carriers) peptide: MQAASTLSTYMGAIRMGYPILHWDRGGVQRVDPGLYRGRVAAAGAPVPYPDPLEPRP
0.8	DGI-2-40F-3-B6 (peptide, not shown: large carriers) peptide: QSNVWVLVGVIMQGVWYQRQHYCVYVMLLSDQVSVLLAVAAAAGAPVPYPDPLEPRP
0.9	DGI-2-40F-3-B5 (peptide, not shown: large carriers) peptide: RSRSSSGASGSMLRVQNHMVLGSWMVRQPMGSMTPFHGHGAAAGAPVPYPDPLEPRP
1.1	MGSLGPFGNINSLASGIGSVRNRPLLPLHGSPAAAGAPVPYPDPLEPRP (peptide, not shown: large carriers) [DGI-2-40F-3-D72]

Second part, the binder before the results:

Binder	LDH (OD)
TANGHRYGGCGLWCKWMSGMAAAGAPVPYPDPLEPRP (peptide, not shown: large carriers) [DGI-2-20R-4-E2]	1.1
RWSLPAYLCRFVSQASCNSRAAAGAPVPYPDPLEPRP (peptide, not shown: large carriers) [DGI-2-20R-3-C12]	1
LHRLGQSMGGTLDHLQGWGVAAAGAPVPYPDPLEPRP (peptide, not shown: large carriers) [DGI-2-20R-4-E5]	1.1
GSVLERGCLEFSGFCFSLGHAAAGAPVPYPDPLEPRP (peptide, not shown: large carriers) [DGI-2-20F-3-C1]	1
LSLLSVVVRSMGASAPQRQVAAAGAPVPYPDPLEPRP (peptide, not shown: large carriers) [DGI-2-20F-3-A7]	0.9
MSTLQGPGHLFQMLRRASLGAAAGAPVPYPDPLEPRP (peptide, not shown: large carriers) [DGI-2-20R-4-H12]	1.3
FSSTGILLRSGRATAVGHVTAAAGAPVPYPDPLEPRP (peptide, not shown: large carriers) [DGI-2-20F-3-A6]	1.1
VAFGEQIRVAMAGTLWQRWRAAAGAPVPYPDPLEPRP (peptide, not shown: large carriers) [DGI-2-20R-3-D5]	1.1
LSVFRPGQFPHVGARGVSRTAAAGAPVPYPDPLEPRP (peptide, not shown: large carriers) [DGI-2-20R-4-G32]	1.1
SWRLWVSGELQGDRRKGLRGAAAGAPVPYPDPLEPRP (peptide, not shown: large carriers) [DGI-2-20R-3-B7]	1
RWSICRGLQYSIPGCAVEDLSDVMAAAAGAPVPYPDPLEPRP (peptide, not shown: large carriers) [DGI-2-20C-4-H316]	1
LSRIWRGVIESAREVESRGIAAAGAPVPYPDPLEPRP (peptide, not shown: large carriers) [DGI-2-20F-3-B1]	0.9
LVIQCSASVVACDLYWNYVGCLAAGAAAGAPVPYPDPLEPRP (peptide, not shown: large carriers) [DGI-2-20C-3-D12]	1
WAGSTDLWQLWSLWVKPELRAAAGAPVPYPDPLEPRP (peptide, not shown: large carriers) [DGI-2-20F-3-B7]	0.9
SLSLYWDAQVGCEVFWGYCVAAAGAPVPYPDPLEPRP (peptide, not shown: large carriers) [DGI-2-20R-3-C10]	1
LSHPMSPLRAASQMALTQGVAAAGAPVPYPDPLEPRP (peptide, not shown: large carriers) [DGI-2-20R-4-H7]	1.2
LTPYSLARSWLSGRPSTGATAAAGAPVPYPDPLEPRP (peptide, not shown: large carriers) [DGI-2-20F-3-C12]	1

Binder	LDH (OD)
LQIVRPAGWKMPGQVGYYIGAAAGAPVPYPDPLEPRP (peptide, not shown: large carriers) [DGI-2-20R-3-A9]	1
GMWIRPNGHMFLQGGYTARSAAAGAPVPYPDPLEPRP (peptide, not shown: large carriers) [DGI-2-20R-4-G8]	1.1
DAGIGWVGSMWFPPGCIGACAAAGAPVPYPDPLEPRP (peptide, not shown: large carriers) [DGI-2-20R-4-E82]	1.1
TPDRCLIYSSIQCLLEYSARRGSADAAAGAPVPYPDPLEPRP (peptide, not shown: large carriers) [DGI-2-20C-3-C65]	1
PAMGHCMQVLGPVLEGRSRDQVGRAAAGAPVPYPDPLEPRP (peptide, not shown: large carriers) [DGI-2-20R-4-G6]	1.1
DGI-2-40F-3-A7 (peptide, not shown: large carriers) peptide: CAYRWGLFRGPGRVDYDLQVVGIMMWPGPIPDRSSRGSVAAAAGAPVPYPDPLEPRP	0.8
GNKCFPPHDLFWDPCDQLQSAAAGAPVPYPDPLEPRP (peptide, not shown: large carriers) [DGI-2-20R-4-F6]	1
GLRACDTYLGFCVGARRIDDAAAGAPVPYPDPLEPRP (peptide, not shown: large carriers) [DGI-2-20F-3-B102]	1
LTWGPQFGSLQVYSRHRGLPAAAGAPVPYPDPLEPRP (peptide, not shown: large carriers) [DGI-2-20R-4-E4]	1.2
FSSVLGLLDRRGVPVVVGEDAAAGAPVPYPDPLEPRP (peptide, not shown: large carriers) [DGI-2-20F-3-C3]	0.9
YDQVWNSLLAAVLGGQELVNAAAGAPVPYPDPLEPRP (peptide, not shown: large carriers) [DGI-2-20F-3-D112]	1
RNWLDKDCVWMGDCGARAGEAAAGAPVPYPDPLEPRP (peptide, not shown: large carriers) [DGI-2-20F-4-E3]	0.9
DGI-2-40F-3-A12 (peptide, not shown: large carriers) peptide: RRTQPAYRSGADDRTSGFYCYVTSALSAGAWMPFLPRRLAAAAGAPVPYPDPLEPRP	0.8
MAVLPAARDFGGVVQGGVSGAAAGAPVPYPDPLEPRP (peptide, not shown: large carriers) [DGI-2-20F-3-C2]	1
DGI-2-40F-3-B4 (peptide, not shown: large carriers) peptide: LWLPCGLLVRPAQFYFYFSPLRHFLSSSVGSLSFPLSLLVAAAGAPVPYPDPLEPRP	0.8
RCFQDGRMLALSPTYLIRRSVSPLVVGPLPTPAAAGAPVPYPDPLEPRP (peptide, not shown: large carriers) [DGI-2-40F-3-A24]	0.9
